Results: article PMC3945839 (Protein Science : A Publication of the Protein Society, 2014)
Where no end group is shown, it is not given here. The star is where a group is joined. BMPH = NNC(=O)CCN1C(=O)CC(*)C1=O

T1: Methionine aminopeptidase from E. coli (E. coli, UniProt P0AE18 1-264)
T1 sequence: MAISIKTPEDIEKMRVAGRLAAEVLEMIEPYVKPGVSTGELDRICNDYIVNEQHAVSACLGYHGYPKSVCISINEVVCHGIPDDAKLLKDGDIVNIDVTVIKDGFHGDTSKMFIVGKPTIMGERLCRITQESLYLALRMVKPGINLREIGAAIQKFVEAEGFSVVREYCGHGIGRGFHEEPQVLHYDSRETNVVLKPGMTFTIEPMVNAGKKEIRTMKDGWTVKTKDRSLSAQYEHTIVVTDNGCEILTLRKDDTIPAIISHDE

B1: N-terminal methionine peptide (X-GMMSC, X = methionine) (peptide)
peptide: MGMMSC(BMPH)
B2: N-terminal leucine peptide (X-GMMSC, X = leucine) (peptide)
peptide: LGMMSC(BMPH)

Columns and labels:
Experiment in all cases: BLI
[1] = target: N-terminal methionine peptide (X-GMMSC, X = methionine)
[2] = target: N-terminal leucine peptide (X-GMMSC, X = leucine)
[3] = target: T1, Methionine aminopeptidase from E. coli

Molecule	Kd [1]	koff [1]	kon [1]	Kd [2]	koff [2]	kon [2]	Kd [3]	koff [3]	kon [3]
eLAP, designed leucine aminopeptidase derived from E. coli methionine aminopeptidase (from UniProt P0AE18 4-264) (enzyme)	19.1 µM	0.00408 s⁻¹	214 M⁻¹ s⁻¹	0.826 µM	0.00142 s⁻¹	1720 M⁻¹ s⁻¹	–	–	–
B1	–	–	–	–	–	–	2.65 µM	0.00489 s⁻¹	1850 M⁻¹ s⁻¹
B2	–	–	–	–	–	–	54.2 µM	0.0147 s⁻¹	271 M⁻¹ s⁻¹
